± gives the uncertainty stated by the source.
Assay: self-splicing fitness, log relative to wild type (ln ratio); higher = more splicing; Tetrahymena group I intron in knt gene, E. coli kanamycin selection, DiMSum; sequences stand for … in CUCUCU…GGAGGGAAAAGUUAUCAGGCAUGCACCUGGUAGCUAGUCUUUAAACCAAUAGAUUGCAUCGGUUUAAAAGGCAAGACCGUCAAAUUGCGGGAAAGGGGUCAACAGCCGUUCAGUACCAAGUCUCAGGGGAAACUUUGAGAUGGCCUUGCAAAGGGUAUGGUAAUAAGCUGACGGACAUGGUCCUAACCACGCAGCCAAGUCCUAAGUCAACAGAUCUUCUGUUGAUAUGGAUGCAGUUCACAGACUAAAUGUCGGUCGGGGAAGAUGUAUUCUUCUCAUAAGAUAUAGUCGGACCUCUCCUUAAUGGGAGCUAGCGGAUGAAGUGAUGCAACACUGGAGCCGCUGGGAACUAAUUUGUAUGCGAAAGUAUAUUGAUUAGUUUUGGAGUACUCGUGGUCG
Summary of the method: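 DiMSum derived fitness as the error-weighted combination of fold changes across replicates, kanamycin versus no kanamycin, normalised to wild type. E. coli BL21(DE3) held the library, which randomised all eight P1ex-region intron nucleotides within the knt kanamycin-resistance gene on pET-22b(+). Six replicate transformations grew overnight at 37°C or 30°C on LB agar with or without 25 μg/mL kanamycin, also containing 100 μg/mL carbenicillin, 50 μM IPTG and 0.2% rhamnose, and pooled colonies were amplicon-sequenced on an Illumina HiSeq 2500.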

| Sequence | self-splicing fitness (ln) (30 °C) | self-splicing fitness (ln) (37 °C) |
| --- | --- | --- |
| UCCCAGCAAUAUUACGAGAA | -1.87 ± 0.18 | -0.452 ± 0.13 |
| CUGGAGCAAUAUUACGAAUC | -3.47 ± 0.43 | -1.68 ± 0.45 |
| UAUCAGCAAUAUUACGAAUG | 0.00149 ± 0.052 | 0.0362 ± 0.07 |
| CGUUAGCAAUAUUACGGUAA | -1.58 ± 0.26 | -0.129 ± 0.28 |
| GGCAAGCAAUAUUACGCACG | -1 ± 0.13 | 0.171 ± 0.24 |
| GAUGAGCAAUAUUACGUACU | -1.85 ± 0.19 | -0.913 ± 0.26 |
| UCUUAGCAAUAUUACGGAGU | -3.29 ± 0.13 | -2.28 ± 0.11 |
| UUCCAGCAAUAUUACGGGUC | -2.91 ± 0.17 | -2.12 ± 0.25 |
| CCUUAGCAAUAUUACGUAUG | -2.98 ± 0.19 | -0.234 ± 0.12 |
| CUAAAGCAAUAUUACGGGUG | 0.107 ± 0.039 | 0.493 ± 0.064 |
| UGAUAGCAAUAUUACGUUGU | -4.45 ± 0.29 | -2.98 ± 0.21 |
| ACAUAGCAAUAUUACGUCCC | -1.71 ± 0.15 | -0.222 ± 0.23 |
| GAACAGCAAUAUUACGUAGC | -0.75 ± 0.074 | -0.22 ± 0.1 |
| GGUGAGCAAUAUUACGUCCA | -2.91 ± 0.24 | -2.07 ± 0.096 |
| GGGGAGCAAUAUUACGGUAU | – | -2.23 ± 0.39 |
| CCCGAGCAAUAUUACGCCUU | -2.99 ± 0.2 | -1.56 ± 0.34 |
| CAUAAGCAAUAUUACGUAUU | -3.24 ± 0.19 | -3.09 ± 0.19 |
| GCUGAGCAAUAUUACGCAAA | -4.1 ± 0.39 | -1.55 ± 0.29 |
| AUCGAGCAAUAUUACGUCGA | -2.83 ± 0.19 | -2.03 ± 0.19 |
| CGUUAGCAAUAUUACGCAGG | -1.3 ± 0.1 | -1.26 ± 0.16 |
| AACAAGCAAUAUUACGGUCA | -0.52 ± 0.043 | 0.199 ± 0.062 |
| CAGCAGCAAUAUUACGAUCG | -0.0679 ± 0.074 | 0.219 ± 0.094 |
| UCCAAGCAAUAUUACGGGAC | -3.59 ± 0.25 | -1.24 ± 0.21 |
| UCUCAGCAAUAUUACGUUUA | -2.98 ± 0.18 | -1.08 ± 0.13 |
| CUUGAGCAAUAUUACGUAUA | -3.5 ± 0.2 | -2.96 ± 0.28 |
| GGCAAGCAAUAUUACGGGCA | -0.0236 ± 0.092 | 0.138 ± 0.1 |

| Sequence | self-splicing fitness (ln) (30 °C) | self-splicing fitness (ln) (37 °C) |
| --- | --- | --- |
| CGUCAGCAAUAUUACGGCUU | -1.34 ± 0.11 | -0.493 ± 0.099 |
| UCCUAGCAAUAUUACGGCUC | – | -1.62 ± 0.44 |
| GUCAAGCAAUAUUACGGGGC | -5.02 ± 0.45 | -3.14 ± 0.27 |
| CGCAAGCAAUAUUACGUAUC | -3.14 ± 0.13 | -2.33 ± 0.19 |
| GAGAAGCAAUAUUACGCACC | -1.91 ± 0.28 | -1.41 ± 0.42 |
| GUAUAGCAAUAUUACGCAAG | -3.76 ± 0.4 | -1.64 ± 0.25 |
| AAGAAGCAAUAUUACGUCCU | -0.0351 ± 0.12 | 0.363 ± 0.16 |
| GUGAAGCAAUAUUACGGAUA | -1.37 ± 0.096 | -1.13 ± 0.1 |
| CGCGAGCAAUAUUACGAAGA | – | -0.985 ± 0.39 |
| AGUAAGCAAUAUUACGAACU | -2.43 ± 0.19 | -0.813 ± 0.15 |
| CUAGAGCAAUAUUACGUCGA | -3.94 ± 0.28 | -2.34 ± 0.28 |
| AAUGAGCAAUAUUACGCGAU | -3.63 ± 0.41 | -0.995 ± 0.22 |
| CAACAGCAAUAUUACGUACU | -1.89 ± 0.076 | -0.917 ± 0.097 |
| GACUAGCAAUAUUACGGUAA | -0.126 ± 0.084 | -0.197 ± 0.078 |
| GUGAAGCAAUAUUACGGGAC | -1.8 ± 0.12 | -0.623 ± 0.13 |
| AGGCAGCAAUAUUACGCCCG | -1.26 ± 0.12 | -0.431 ± 0.2 |
| GAAUAGCAAUAUUACGCGCG | -0.825 ± 0.1 | -0.591 ± 0.13 |
| UUAAAGCAAUAUUACGAAUA | -1.71 ± 0.088 | -0.164 ± 0.12 |
| UGCUAGCAAUAUUACGACGU | -1.71 ± 0.22 | -2.36 ± 0.32 |
| UCCGAGCAAUAUUACGGGUC | – | -2.45 ± 0.26 |
| CGUUAGCAAUAUUACGGAGC | -3.81 ± 0.47 | -1.35 ± 0.47 |
| GCCAAGCAAUAUUACGGAUC | -0.959 ± 0.071 | -0.179 ± 0.098 |
| CCCUAGCAAUAUUACGUAUC | – | -3.37 ± 0.39 |
| CAACAGCAAUAUUACGGGAA | -2.48 ± 0.16 | -2.04 ± 0.14 |
| UGCGAGCAAUAUUACGUUGU | -2.79 ± 0.18 | -3.05 ± 0.27 |
| AAGAAGCAAUAUUACGCCGA | -0.879 ± 0.12 | -0.757 ± 0.15 |

| Sequence | self-splicing fitness (ln) (30 °C) | self-splicing fitness (ln) (37 °C) |
| --- | --- | --- |
| CUGCAGCAAUAUUACGCCCU | -3.15 ± 0.37 | -1.71 ± 0.33 |
| AUCUAGCAAUAUUACGCCCU | -0.479 ± 0.19 | 0.46 ± 0.19 |
| CGAUAGCAAUAUUACGUAGU | -3.93 ± 0.18 | -1.06 ± 0.1 |
| AUGCAGCAAUAUUACGACGA | -0.531 ± 0.081 | -0.65 ± 0.089 |
| AUUGAGCAAUAUUACGCCUU | -2.26 ± 0.39 | -1.89 ± 0.3 |
| GCCAAGCAAUAUUACGUUCG | -3.08 ± 0.17 | -1.22 ± 0.13 |
| GUUGAGCAAUAUUACGUCUC | – | -0.823 ± 0.46 |
| UGGGAGCAAUAUUACGAAGA | -2.99 ± 0.47 | -2.68 ± 0.33 |
| GACCAGCAAUAUUACGAUAG | -1.73 ± 0.074 | -1.45 ± 0.11 |
| ACCCAGCAAUAUUACGCCCG | -2.3 ± 0.18 | -1.22 ± 0.19 |
| GCCAAGCAAUAUUACGUUGC | -2.91 ± 0.13 | -0.915 ± 0.15 |
| CGAAAGCAAUAUUACGCCUC | – | -1.53 ± 0.32 |
| GUACAGCAAUAUUACGGGGA | -3.21 ± 0.25 | -2.33 ± 0.19 |
| UACGAGCAAUAUUACGGUCG | -0.828 ± 0.076 | -0.0425 ± 0.099 |
| GGCAAGCAAUAUUACGGUGU | -1.2 ± 0.059 | -0.54 ± 0.09 |
| UGUAAGCAAUAUUACGGAAG | -1.91 ± 0.13 | -2.38 ± 0.21 |
| GAUAAGCAAUAUUACGGAAG | -3.56 ± 0.35 | -1.95 ± 0.23 |
| ACGAAGCAAUAUUACGGGCU | -0.943 ± 0.1 | -1.67 ± 0.16 |
| CAGGAGCAAUAUUACGCCCA | -2.13 ± 0.38 | -1.18 ± 0.27 |
| AACUAGCAAUAUUACGCCUA | -0.593 ± 0.11 | -0.206 ± 0.11 |
| GCAAAGCAAUAUUACGAAAC | -1.75 ± 0.092 | -0.783 ± 0.11 |
| UCUUAGCAAUAUUACGUACA | -2.58 ± 0.19 | -1.28 ± 0.16 |
| CGCGAGCAAUAUUACGCCAC | -3.41 ± 0.47 | – |
| ACGUAGCAAUAUUACGUACC | -1.4 ± 0.13 | -0.541 ± 0.19 |
| UGGCAGCAAUAUUACGGAUA | -0.806 ± 0.098 | -0.358 ± 0.11 |
| CUUUAGCAAUAUUACGAUGC | -2.95 ± 0.24 | – |
